Results from patent US10215752B2, “Nanotube array for optical detection of protein-protein interactions” (MASSACHUSETTS INSTITUTE OF TECHNOLOGY, priority 2010, dated 2019).

Target: p16 (Homo sapiens, UniProt Q8N726)
Test: Protein-protein interaction on SWNT/CHI array, Förster distance calculation
Conditions: distance change after analyte protein p16, Förster equation
Description: Reaction mixtures for cell-free protein expression were added to each array wells. The fluorescent intensities of each SWNT/CHI well were taken to track the intensity changes. To initiate protein synthesis, 1 μl PCR-amplified DNAs were added to each well a humidified chamber at 37° C. for 2 hours. The arrays were washed three times for 10 min each with PBS buffer (pH 7.4, 100 mM) at RT and then PL spectra were taken. To analyze protein-protein interaction on SWNT/XHI array, anti-Histag antibody or cell-free expressed protein mixtures were added to each well and then PL spectra were taken to compare the intensity change.
Near-infrared photoluminescence spectra were acquired using 785 nm excitation and an Acton SP-150 spectrograph coupled to a Princeton instruments OMA V InGaAs detector or with Kaiser Holospec f/1.8 Imaging Spectrograph (Kaiser Optical).

p16, sequence (Q8N726 with tags, fused parts or gaps): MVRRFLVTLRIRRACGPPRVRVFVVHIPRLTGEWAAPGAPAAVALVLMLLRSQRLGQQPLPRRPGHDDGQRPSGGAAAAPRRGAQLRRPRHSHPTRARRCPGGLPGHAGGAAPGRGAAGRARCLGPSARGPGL

B1: CDK4: human derived protein (ExPASy P11802), on-chip cell-free expressed with His-tag (protein, UniProt P11802 2-303, looked up)
Cyclin-dependent kinase 4: ATSRYEPVAEIGVGAYGTVYKARDPHSGHFVALKSVRVPNGGGGGGGLPISTVREVALLRRLEAFEHPNVVRLMDVCATSRTDREIKVTLVFEHVDQDLRTYLDKAPPPGLPAETIKDLMRQFLRGLDFLHANCIVHRDLKPENILVTSGGTVKLADFGLARIYSYQMALTPVVVTLWYRAPEVLLQSTYATPVDMWSVGCIFAEMFRRKPLFCGNSEADQLGKIFDLIGLPPEDDWPRDVSLPRGAFPPRGPRPVQSVVPEMEESGAQLLLEMLTFNPHKRISAFRALQHSYLHKDEGNPE
modifications: His-tag
Δd2: 0.06338
